Test results reported in US20250011823A1, “Method for preparing ultra-low molecular weight Dendrobium oligosaccharides by enzymatic hydrolysis and its application” (Zhejiang A & F University, priority 2022, published 2025).

B1: THGH: T. halotolerans-derived glycosidase expressed in E. coli from the non-optimized gene SEQ ID NO.1 (protein)
chain: MRKRLTVAAATILALLASVFVFAQPANAATGFYVDNGRLYEAGGQEFVIRGVSHPHAWYAQETDSFAGIKSHGANTVRVVLSNGVRWTKNDAADVANVISLCKQNRLICMLEVHDTTGYGEQSGASTLDQAVDYWIEIQSALEGQEDYVLINIGNEPYGNDSATVADWASDTSAAIQRMRDAGFDHTLVVDAPNWGQDWSHTMRDNAGSVYTSDPTGNTVFSIHMYGVYEQGSTVTSYLEHFVNAGLPIMIGEFGHDHSDGNPDEDTIMAEAERLGLGYIGWSWSGNGGGVEYLDMVNNFDADSLTSWGQRIFYGANGISSTAEEATVYGGGAPTDPPTDPPAEGDCSADYTTVGSWGGGFQGEVTVTAGDSAISNWTVSWTFPGGQSVSHGWNASFGGGSPVTASNAPYNGQLGAGQSTTFGFIGSGSAPGSLTLTCTTD
modifications: Thermobifida halotolerans
B2: ThDPS: T. halotolerans-derived glycosidase (SEQ ID NO.3) expressed in E. coli from codon-optimized gene SEQ ID NO.2, with 6× His-tag (protein)
chain: B1 chain
modifications: 6xHis tag; Thermobifida halotolerans

Assay: ThDPS glycosidase activity determination (DNS method), hydrolysis of Dendrobium polysaccharides
Type: biochemical
Conditions: for enzymatic activity of expression product (hydrolysis of Dendrobium polysaccharides): crude supernatant of recombinant E. coli BL21 (DE3)
Experimental: Enzymatic activity definition: the amount of enzyme that can convert 1micromole of substrate per 1 minute at 37° C. is defined as one unit of enzymatic activity (U).
Enzymatic activity determination: ThDPS glycosidases can decompose Dendrobium polysaccharides into mannan oligosaccharides. The mannan oligosaccharide has reducibility and can undergo a certain chemical reaction with a DNS reagent under alkaline conditions to generate 3-amin-5-nitrosalicylic acid that is brownish-red under boiling conditions. The amount of reducing sugar generated can be measured with a spectrophotometer. The gradation of the color of the acid is related to the content of the reducing sugar.
Specific steps for enzymatic activity determination are as follows: a total reaction system is 2 mL, containing 1 mL of a Dendrobium polysaccharide solution with a concentration of 4 g/L, 200 μL of a phosphate buffer with a concentration of 200 mM, and 10 μL of an enzyme solution. 10 μL of distilled water is added to a control group, and water is replenished to a total volume of 2 mL for all reaction solutions. A mixed reaction solution is incubated at 37° C. for 30 min. After being taken out, the incubated mixed reaction solution is placed in a boiling water bath for 1 min to inactivate the enzymes. 2 mL of a DNS solution is added into each tube, and the tube is placed in the boiling water bath for 3 min, and then is rapidly cooled, and 1 mL of distilled water is added […]. The absorbance is measured at the wavelength of 540 nm to determine the enzymatic activity.
The recombinant bacteria constructed in step 1 were inoculated into a test tube containing 5 mL of LB medium (containing 100 ug/mL ampicillin), and underwent shake-flask culture at 37° C. and 200 r/min for 16 h. As a seed solution, the cultured bacterial solution was transferred into 100 mL of LB liquid medium (containing 100 ug/mL ampicillin) with an inoculum size of 1%, and underwent shake-flask culture at 37° C. and 200 rpm until OD600 was 0.6. 0.1 mM of IPTG was added to induce expression, and shaking culture was carried out for 24 h at 37° C. and 200 rpm. The obtained fermentation broth was centrifuged at 8000×g and 4° C. for 10 min, the supernatant was removed, and bacterial cells were collected. The bacterial cells were resuspended with 8 mL of 50 mM PBS of pH=7.0. After ultrasonic crushing, centrifugation was carried out for 10 min at 4° C. and 12000×g, precipitates were removed, the supernatant was collected for the hydrolysis reaction of Dendrobium polysaccharides, and hydrolysis products were detected by using a DNS method.
By taking Dendrobium polysaccharides as a substrate, the enzymatic property of ThDPS was characterized. • 1. 0.2 g, 0.4 g, 0.8 g, 1.2 g, 1.6 g, 2.0 g, 2.4 g, and 3 g of Dendrobium polysaccharides were (Mw>100000 Da) weighed and dissolved in 1 L of distilled water to prepare Dendrobium polysaccharide solutions, and then 20 μL of an enzyme solution was added and reacted at 37° C. for 30 min. The enzyme solution was an enzyme solution of ThDPS prepared in Example 2 diluted with deionized water to a concentration of 100 μg/mL. […] Optimum temperature determination: 10 g/L Dendrobium polysaccharides were formulated as a reaction substrate. To a reaction system was added 0.4 mL of Dendrobium polysaccharides with a final concentration of 2 g/L, 200 μL of a 500 mM Tris-HCl buffer, and 20 μl of an enzyme solution (providing 10 U of catalytic activity), and 20 μl of distilled water was added to a control group. The water was replenished to a total volume of 2 mL for all reaction solutions. After fair mixing, the mixtures were placed in water baths at 20° C., 30° C., 40° C., 50° C., […], 70° C., 80° C., and […] and incubated for 30 min. The enzyme solution was an enzyme solution of ThDPS prepared in Example 2 diluted with deionized water to a concentration of 100 μg/mL. […]

| Molecule | enzymatic activity of expression product (hydrolysis of Dendrobium polysaccharides) (DNS method) | hydrolysis activity on the Dendrobium polysaccharides (in words) (expression products of recombinant E. coli, DNS method, FIG. 1) | pH of maximum activity (50 mM phosphate buffer, 37° C., 30 min) | optimal reaction temperature (2 g/L Dendrobium polysaccharides, Tris-HCl buffer, 30 min, 20-90° C.) | substrate inhibition (in words) (Dendrobium polysaccharide 0.2 g/L to 3 g/L) | increase of expression enzymatic activity level versus THGH without codon optimization (codon-optimized sequence, E. coli BL21 (DE3)) | relative activity (percentage of maximum activity) (range of pH 6.0 to 10.0) | specific enzymatic activity (substrate concentration 2.4 g/L, 37° C., 30 min) | relative activity (percentage of maximum activity) (temperature between 40° C. and 60° C.) |
| --- | --- | --- | --- | --- | --- | --- | --- | --- | --- |
| B1 | 68 U/OD bacterial cells | significant hydrolysis activity |  |  |  |  |  |  |  |
| B2 | 187 U/OD bacterial cells |  | 7.0 | 60 °C | no significant substrate inhibition | 2.75 times | more than 90% | 5100 U/mg | ≥ 85% |
